Experimental data from patent publication US20260097113A1 (Pfizer, published 2026).

T1: RSV F protein of subtype A comprising a polypeptide of SEQ ID NO: 1 and a polypeptide of SEQ ID NO: 2 (RSV subtype A, UniProt P11209 137-513; P03420 26-109)
T1 construct: Stabilized prefusion F trimer made of three F2-F1 heterodimers; Produced recombinantly in CHO cells; also called RSV A; RSVA
T1 chain 1: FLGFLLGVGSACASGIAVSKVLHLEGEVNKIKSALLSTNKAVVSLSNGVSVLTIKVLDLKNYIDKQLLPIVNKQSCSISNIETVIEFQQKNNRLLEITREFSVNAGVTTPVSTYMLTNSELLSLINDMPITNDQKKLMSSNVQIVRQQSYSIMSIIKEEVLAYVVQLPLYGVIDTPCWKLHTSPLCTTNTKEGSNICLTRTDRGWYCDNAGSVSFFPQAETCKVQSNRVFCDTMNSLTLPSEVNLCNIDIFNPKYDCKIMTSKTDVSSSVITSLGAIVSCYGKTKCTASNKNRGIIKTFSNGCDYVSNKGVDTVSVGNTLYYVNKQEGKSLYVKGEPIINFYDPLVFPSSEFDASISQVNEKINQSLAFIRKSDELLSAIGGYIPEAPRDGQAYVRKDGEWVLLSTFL
T1 chain 2: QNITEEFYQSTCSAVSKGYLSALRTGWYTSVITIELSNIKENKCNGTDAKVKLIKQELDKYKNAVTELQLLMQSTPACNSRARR


Experiments:
[1] = target: RSV A + RSV B bivalent composition (RSV subtype A; RSV subtype B); assay: AM14 Fab titration by SEC; composition of Table 17; Pre-lyo Prep 2, T0 (second value)
[2] = target: RSV A + RSV B bivalent composition (RSV subtype A; RSV subtype B); assay: AM14 Fab titration by SEC; Target cycle; 1 M 25°C
[3] = target: RSV A + RSV B bivalent composition (RSV subtype A; RSV subtype B); assay: AM14 Fab titration by SEC; High-Slow 2 cycle; 8 M 25°C
[4] = target: RSV A + RSV B bivalent composition (RSV subtype A; RSV subtype B); assay: AM14 Fab titration by SEC; High-Slow 1 cycle; 8 M 2-8°C
[5] = target: RSV A + RSV B bivalent composition (RSV subtype A; RSV subtype B); assay: AM14 Fab titration by SEC; Target cycle; 3 M 40°C
[6] = target: RSV A + RSV B bivalent composition (RSV subtype A; RSV subtype B); assay: AM14 Fab titration by SEC; composition of Table 14; Annealing Temp Aggressive cycle
[7] = target: RSV A + RSV B bivalent composition (RSV subtype A; RSV subtype B); assay: AM14 Fab titration by SEC; composition of Table 14; Cumulative Aggressive (High-Slow) cycle
[8] = target: T1, RSV F protein of subtype A comprising a …; assay: AM14 ELISA; F7 (pH 6, 100 mM NaCl, 0% sucrose); 2 wk 5°C
[9] = target: T1, RSV F protein of subtype A comprising a …; assay: AM14 ELISA; F15 (pH 6, 0 mM NaCl, 9% sucrose); 2 wk 5°C
[10] = target: T1, RSV F protein of subtype A comprising a …; assay: AM14 ELISA; F6 (pH 7, 0 mM NaCl, 4.5% sucrose); T0
[11] = target: T1, RSV F protein of subtype A comprising a …; assay: AM14 ELISA; F19 (pH 7, 50 mM NaCl, 3% trehalose + 3% mannitol); 1 wk 5°C
[12] = target: T1, RSV F protein of subtype A comprising a …; assay: AM14 ELISA; F8 (pH 7, 50 mM NaCl, 0% sucrose); T0
[13] = target: T1, RSV F protein of subtype A comprising a …; assay: AM14 ELISA; F10 (pH 7, 50 mM NaCl, 4.5% sucrose); 2 wk 5°C
[14] = target: T1, RSV F protein of subtype A comprising a …; assay: AM14 ELISA; F10 (pH 7, 50 mM NaCl, 4.5% sucrose); 1 wk 5°C
[15] = target: T1, RSV F protein of subtype A comprising a …; assay: AM14 ELISA; F15 (pH 6, 0 mM NaCl, 9% sucrose); 2 wk 25°C
[16] = target: T1, RSV F protein of subtype A comprising a …; assay: AM14 ELISA; F9 (pH 8, 50 mM NaCl, 4.5% sucrose); 2 wk 5°C
[17] = target: T1, RSV F protein of subtype A comprising a …; assay: AM14 ELISA; F9 (pH 8, 50 mM NaCl, 4.5% sucrose); 1 wk 5°C

Row | Molecule | Prefusion Content (%) [1] [%] | Prefusion Content (%) [2] [%] | Prefusion Content (%) [3] [%] | Prefusion Content (%) [4] [%] | Prefusion Content (%) [5] [%] | Prefusion Content (%) [6] [%] | Prefusion Content (%) [7] [%] | AM14 prefusion content (%), relative to standard [8] [%] | AM14 prefusion content (%), relative to standard [9] [%] | AM14 prefusion content (%), relative to standard [10] [%] | AM14 prefusion content (%), relative to standard [11] [%] | AM14 prefusion content (%), relative to standard [12] [%] | AM14 prefusion content (%), relative to standard [13] [%] | AM14 prefusion content (%), relative to standard [14] [%] | AM14 prefusion content (%), relative to standard [15] [%] | AM14 prefusion content (%), relative to standard [16] [%] | AM14 prefusion content (%), relative to standard [17] [%]
1 | AM14 Fab | 82 | 65 | 71 | 69 | 72 | 70 | 64 | – | – | – | – | – | – | – | – | – | –
2 | AM14 (trimeric prefusion specific antibody of the AM14 ELISA) (antibody, V domains shown, Antibody as used in the AM14 ELISA, detected with an HRP-labeled secondary antibody) VH: EVQLVESGGGVVQPGRSLRLSCAASGFSFSHYAMHWVRQAPGKGLEWVAVISYDGENTYYADSVKGRFSISRDNSKNTVSLQMNSLRPEDTALYYCARDRIVDDYYYYGMDVWGQGATVTVSS VL: DIQMTQSPSSLSASVGDRVTITCQASQDIKKYLNWYHQKPGKVPELLMHDASNLETGVPSRFSGRGSGTDFTLTISSLQPEDIGTYYCQQYDNLPPLTFGGGTKVEIKR | – | – | – | – | – | – | – | 38 | 84 | 99 | 74 | 100 | 71 | 93 | 91 | 92 | 94
